18 molecules from patent US20100310640A1 can be followed below.

T1: HLA-DR DRB4*0101 (human)
T1 chain 1: not shown
T1 chain 2: not shown

T2: HLA-DR DRB1*1101 (human)
T2 chain 1: not shown
T2 chain 2: not shown

T3: HLA-DR DRB1*0701 (human)
T3 chain 1: not shown
T3 chain 2: not shown

T4: HLA-DR DRB1*0401 (human)
T4 chain 1: not shown
T4 chain 2: not shown

T5: HLA-DR DRB1*0405 (human)
T5 chain 1: not shown
T5 chain 2: not shown

T6: HLA-DR DRB1*1302 (human)
T6 chain 1: not shown
T6 chain 2: not shown

T7: HLA-DR DRB1*0404 (human)
T7 chain 1: not shown
T7 chain 2: not shown

T8: HLA-DR DRB5*0101 (human)
T8 chain 1: not shown
T8 chain 2: not shown

T9: HLA-DR DRB1*0101 (human)
T9 chain 1: not shown
T9 chain 2: not shown

B1: Peptide 9019.0098 (peptide)
peptide: AKGLQSLPTHDPSPL
B2: CEA.680 peptide 9019.0144 (peptide)
peptide: SPGLSAGATVGIMIG
B3: CEA.629 peptide 9019.0139 (peptide)
peptide: INGIPQQHTQVLFIA
B4: Peptide 9019.0181 (peptide)
peptide: GARMPCAELVREPGC
B5: CEA.81 peptide 9019.0110 (peptide)
peptide: GYVIGTQQATPGPAY
B6: CEA.123 peptide 9019.0119 (position 226) (peptide)
peptide: SDSVILNVLYGPDAP
B7: CEA.688 peptide 9019.05 (peptide)
peptide: TVGIMIGVLVGVALI
B8: CEA.624 peptide 9019.0138 (peptide)
peptide: QYSWRINGIPQQHTQ
B9: Her2/neu.263 (peptide)
peptide: ICELHCPALVTYNTD
B10: CEA.119 peptide 9019.0114 (peptide)
peptide: FYTLHVIKSDLVNEE
B11: Cyclin D1.56 (peptide)
peptide: MRKIVATWMLEVCEE
B12: Cyclin D1.129 (peptide)
peptide: DNSIRPEELLQMELL
B13: CEA.603 peptide 9012.0137 (peptide)
peptide: SSYLSGANLNLSCHS
B14: Peptide 9019.0096 (peptide)
peptide: FRELVSEFSRMARDP
B15: Peptide 9019.0101 (peptide)
peptide: EGPLPAARPAGATLE
B16: CEA.92 peptide 9019.0111 (peptide)
peptide: GPAYSGREIIYPNAS
B17: Her/neu.3 (peptide)
peptide: LAALCRWGLLLALLP
B18: Her/neu.47 (peptide)
peptide: RHLYQGCQVVQGNLE

The first experiment concerns the target T1, HLA-DR DRB4*0101 (human). The experiment is described as follows: radioligand inhibition, purified HLA-DR. The note with it: remark: other sources report otherwise.
As to B1, the half-inhibitory concentration (IC50) came out at 572 nM.
With B2, the IC50 worked out at 2590 nM.
Molecule B3 had an IC50 of 2700 nM.
Same read-out and setting: with B4 the figure was 4700 nM; with B5, 63 nM.
The same measure, in the same setting: then B6, with 612 nM; and B7, with 12100 nM.
The same measure, in the same setting: then B8, with 2290 nM.
B9 displayed an IC50 of 441 nM.
Still for that read-out and setting: then B10, with 22 nM; and B11, with 281 nM; and B12, with 87 nM.
The same measure, in the same setting: with B13 the figure was 42 nM.

The target of another experiment is T2, HLA-DR DRB1*1101 (human). The experiment is described as follows: radioligand inhibition, purified HLA-DR. The note with it: remark: other sources report otherwise.
For the molecule B1, the IC50 came to 6810 nM.
Molecule B6 returned an IC50 of 9210 nM.
Turning to B8, the IC50 is 151 nM.
Same read-out and setting: then B14, with 381 nM.

The target of a further experiment is T3, HLA-DR DRB1*0701 (human). Nature of the experiment: radioligand inhibition, purified HLA-DR. The note with it: remark: other sources report otherwise.
Turning to B15, the IC50 is 7460 nM.
Turning to B1, the IC50 amounted to 4460 nM.
Still for that read-out and setting: then B2, with 92 nM; and B16, with 5260 nM; and B3, with 31 nM.
Molecule B17 yielded an IC50 of 8000 nM.
Still for that read-out and setting: with B18 the figure was 4940 nM; with B5, 1700 nM; with B6, 5240 nM.
Same read-out and setting: with B7 the figure was 4450 nM.
The same measure, in the same setting: with B10 the figure was 56 nM; with B11, 249 nM; with B12, 6650 nM.
B14 returned an IC50 of 5060 nM.

The target in another experiment is T4, HLA-DR DRB1*0401 (human). The experiment is described as follows: radioligand inhibition, purified HLA-DR. The settings on record: remark: other sources report otherwise.
On to B2, for which the IC50 is 4190 nM.
Still for that read-out and setting: then B16, with 13000 nM; and B3, with 181 nM; and B17, with 5390 nM.
Same read-out and setting: then B18, with 422 nM.
Still for that read-out and setting: with B5 the figure was 31 nM; with B6, 255 nM.
B8: the IC50 came out at 43 nM.
As for B9, the IC50 stood at 754 nM.
Same read-out and setting: then B11, with 7950 nM; and B12, with 4680 nM.
Same read-out and setting: with B14 the figure was 22 nM; with B13, 580 nM.

The target of a further experiment is T5, HLA-DR DRB1*0405 (human). The experiment is described as follows: radioligand inhibition, purified HLA-DR. The settings on record: remark: other sources report otherwise.
The molecule B1 had a half-maximal inhibitory concentration (IC50) of 3860 nM.
Still for that read-out and setting: with B3 the figure was 942 nM; with B8, 311 nM.
Molecule B10 yielded a half-maximal inhibitory concentration (IC50) of 41 nM.
Molecule B12 gave an IC50 of 16500 nM.
B13 registered an IC50 of 7820 nM.

For another experiment, the target named is T6, HLA-DR DRB1*1302 (human). The experiment is described as follows: radioligand inhibition, purified HLA-DR. The settings on record: remark: other sources report otherwise.
B15 yielded a half-inhibitory concentration (IC50) of 10200 nM.
On the same count and under the same terms, then B1, with 3990 nM; and B2, with 80 nM.
Still for that read-out and setting: then B16, with 154 nM; and B17, with 704 nM; and B18, with 5040 nM.
The molecule B5 showed an IC50 of 43 nM.
Same read-out and setting: then B6, with 83 nM; and B7, with 5640 nM; and B9, with 3220 nM.
Still for that read-out and setting: with B11 the figure was 356 nM; with B12, 939 nM; with B13, 37 nM.

Another experiment concerns the target T7, HLA-DR DRB1*0404 (human). Nature of the experiment: radioligand inhibition, purified HLA-DR. The note with it: remark: other sources report otherwise.
In turn, B4 gave an IC50 of 13100 nM.
Same read-out and setting: with B5 the figure was 34 nM; with B10, 169 nM; with B12, 2800 nM.
Same read-out and setting: with B14 the figure was 51 nM.

In another experiment the target is T8, HLA-DR DRB5*0101 (human). The experiment is described as follows: radioligand inhibition, purified HLA-DR. The settings on record: remark: other sources report otherwise.
In turn, B5 showed an IC50 of 10200 nM.
The same measure, in the same setting: with B7 the figure was 384 nM.
Same read-out and setting: with B9 the figure was 2810 nM.
Same read-out and setting: with B10 the figure was 4500 nM; with B11, 17000 nM.
B14 showed an IC50 of 380 nM.
On to B13, for which the IC50 was 14100 nM.

A further experiment concerns the target T9, HLA-DR DRB1*0101 (human). The experiment is described as follows: radioligand inhibition, purified HLA-DR. The settings on record: remark: other sources report otherwise.
B15 returned an IC50 of 17300 nM.
Same read-out and setting: with B1 the figure was 149 nM.
For the molecule B2, the IC50 is 3510 nM.
For the molecule B16, the IC50 came out at 9440 nM.
Still for that read-out and setting: with B3 the figure was 682 nM; with B17, 2040 nM; with B4, 164 nM.
Regarding B5, the IC50 stood at 21 nM.
The molecule B7 displayed an IC50 of 384 nM.
On to B8, for which the IC50 was 472 nM.
Still for that read-out and setting: then B11, with 764 nM; and B12, with 4550 nM.
For B13, the IC50 was 40 nM.

What is called IC50 is the point on the concentration scale where inhibition reaches its midpoint.
